Experimental findings from US20260035456A1 (SHANGHAI JEYOU PHARMACEUTICAL, published 2026) are described below.

Experiment [1] concerns the target T1, biotin-labeled human ADM (human, not fully specified; biotin label (named human ADM-C-biotin in Example 1.4; position of the biotin not stated for the other lots)).
T1 construct: Synthetic peptide; also called human ADM-C-biotin; hADM-Biotin
T1 peptide: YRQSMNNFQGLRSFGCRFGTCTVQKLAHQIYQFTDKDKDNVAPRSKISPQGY
Briefly: BLI (Octet RED96e), as in Example 3. The method, then: (§1) The affinity of antibodies 2004hz00, 2004hz97, and 2004hz99 for biotin-labeled human and mouse ADM (human ADM Cat. No. 894757, mouse ADM Cat. No. 894758, synthesized by GLBiochem) was determined by adopting Octet RED96e (Fortebio). The antigens and the antibodies were all diluted with 1× PBST (1× PBS: Sangon, B548117-0500; 0.02% Tween 20: sigma, P1379), the concentration of the antibody used was 100 nM, and the concentration of the antigen used was 2 μg/mL. The candidate antibody sample was added to a 96-well plate (Greiner bio-one, 655209) at 200 μL/well, the software parameters were set, the temperature was 30° C., and the standard kinetic signal was collected at a frequency of 5.0 Hz; and an SA sensor (Fortebio, Cat. No. 18-5020) was pre-wetted with 1× PBST for 10 min and then tested on a machine.
(§2) The equilibrium dissociation constants (KD) of the antibodies were calculated by measuring the association rates (Kon) and the dissociation rates (Koff) of the antigen-antibody in a 1:1 binding manner by adopting the Data Analysis 12.0 software from Fortebio.
(§3) Similar to Example 3, the affinity of the affinity-matured antibodies Ab2004.Am31 -Ab2004.Am40 and the parent antibody Ab2004.Am01 for human and mouse ADM was further determined, respectively, and the results are shown in Table 10. It can be seen from Table 10 […].

Experiment [2] deals with T2, biotin-labeled mouse ADM (mouse, not fully specified; biotin label (named mouse ADM-C-biotin in Example 1.4; position of the biotin not stated for the other lots)).
T2 construct: Synthetic peptide; also called mouse ADM-C-biotin; mADM-Biotin
T2 peptide: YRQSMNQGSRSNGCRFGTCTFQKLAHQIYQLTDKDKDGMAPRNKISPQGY
Put plainly: BLI (Octet RED96e), as in Example 3. The method, then: as §1, §2, §3

B1: Enibarcimab (antibody, V domains shown)
VH: QVQLVQSGAEVKKPGSSVKVSCKASGYTFSRYWIEWVRQAPGQGLEWIGEILPGSGSTNYNQKFQGRVTITADTSTSTAYMELSSLRSEDTAVYYCTEGYEYDGFDYWGQGTTVTVSS
VL: DVVLTQSPLSLPVTLGQPASISCRSSQSIVYSNGNTYLEWYLQRPGQSPRLLIYRVSNRFSGVPDRFSGSGSGTDFTLKISRVEAEDVGVYYCFQGSHIPYTFGGGTKLEIKR
In experiment [1], B1 displayed a Kd of 0.567 nM, a Response value of 2.07, a koff of 0.000382 s⁻¹ and a kon of 673000 M⁻¹ s⁻¹. In experiment [2], this molecule came in with a Kd of 0.497 nM, a Response value of 2.75, a koff of 0.000297 s⁻¹ and a kon of 597000 M⁻¹ s⁻¹.

B2: Ab2004.Am36 (IgG1 antibody) (antibody, V domains shown)
VH: QVQLVQSGAEVKKPGASVKVSCKASGYTFTQYGIAWVRQAPGQGLEWMGWISAYQGNTNYAQKLQGRVTMTRDTSTSTAYMELRSLRSDDTAVYYCAREGRWGGSFNIWGQGTMVTVSS
VL: DIQMTQSPSSLSASVGDRVTITCRASQGISSYLAWYQQKPGKAPKLLIYDASNVDTGVPSRFSGSGSGTDFTFTISSLQPEDIATYYCQQYDNLPLTFGGGTKVEIKR
notes: Expressed in CHO cells, human IgG1/kappa
As to B2, in experiment [1], the affinity, expressed as Kd, was 0.291 nM; the Response value was 2.7; the koff was 0.000108 s⁻¹; the kon is 372000 M⁻¹ s⁻¹. For the same molecule, in experiment [2], binding was put at a Kd of 0.518 nM, the Response value amounted to 2.75, the koff worked out at 0.000221 s⁻¹ and the kon was 427000 M⁻¹ s⁻¹.

B3: Ab2004.Am40 (IgG1 antibody) (antibody, V domains shown)
VH: QVQLVQSGAEVKKPGASVKVSCKASGYTFTQYGIAWVRQAPGQGLEWMGWISAYQGNTNYAQKLQGRVTMTRDTSTSTAYMELRSLRSDDTAVYYCAREGRWGGSFNIWGQGTMVTVSS
VL: DIQMTQSPSSLSASVGDRVTITCRASQGISSYLAWYQQKPGKAPKLLIYDASNLETGVPSRFSGSGSGTDFTFTISSLQPEDIATYYCQQYDDLPLSFGGGTKVEIKR
notes: as for B2
In experiment [1], B3 displayed a Kd of 0.352 nM, a Response value of 2.66, a koff of 0.000158 s⁻¹ and a kon of 449000 M⁻¹ s⁻¹. Besides, in experiment [2], the Kd is 0.492 nM, the Response value turned out to be 2.65, the koff came out at 0.000253 s⁻¹ and the kon was 513000 M⁻¹ s⁻¹.

B4: Ab2004.Am39 (IgG1 antibody) (antibody, V domains shown)
VH: QVQLVQSGAEVKKPGASVKVSCKASGYTFTHYGIAWVRQAPGQGLEWMGWISAYQGNTNYAQKLQGRVTMTRDTSTSTAYMELRSLRSDDTAVYYCAREGRWGGSFNIWGQGTMVTVSS
VL: DIQMTQSPSSLSASVGDRVTITCRASQGISSYLAWYQQKPGKAPKLLIYDASNLETGVPSRFSGSGSGTDFTFTISSLQPEDIATYYCQQYDDLDLTFGGGTKVEIKR
notes: as for B2
Take B4: in experiment [1], binding was characterised by a dissociation constant (Kd) of 0.178 nM, the Response value was determined as 2.57, the koff is 8.33e-05 s⁻¹ and the on-rate (kon) worked out at 468000 M⁻¹ s⁻¹. In experiment [2], this molecule showed a Kd of 0.489 nM, a Response value of 2.7, a koff of 0.000266 s⁻¹ and a kon of 543000 M⁻¹ s⁻¹.

B5: Ab2004.Am37 (IgG1 antibody) (antibody, V domains shown)
VH: QVQLVQSGAEVKKPGASVKVSCKASGYTFTSYGISWVRQAPGQGLEWMGWISPYTGKTNYAQKLQGRVTMTRDTSTSTAYMELRSLRSDDTAVYYCAREGRWGGSFNIWGQGTMVTVSS
VL: DIQMTQSPSSLSASVGDRVTITCRASQGISSYLAWYQQKPGKAPKLLIYDVSILDAGVPSRFSGSGSGTDFTFTISSLQPEDIATYYCQQYDNLPLTFGGGTKVEIKR
notes: as for B2
As to B5, in experiment [1], the Kd is 0.256 nM, the Response value is 2.88, the koff amounted to 0.00015 s⁻¹ and the kon amounted to 587000 M⁻¹ s⁻¹. Moreover, in experiment [2], binding was put at a Kd of 0.469 nM, the Response value was 2.85, the koff turned out to be 0.00033 s⁻¹ and the on-rate constant (kon) was determined as 703000 M⁻¹ s⁻¹.

B6: Ab2004.Am31 (IgG1 antibody) (antibody, V domains shown)
VH: QVQLVQSGAEVKKPGASVKVSCKASGYTFTQYGIAWVRQAPGQGLEWMGWISAYQGNTNYAQKLQGRVTMTRDTSTSTAYMELRSLRSDDTAVYYCAREGRWGGSFNIWGQGTMVTVSS
VL: DIQMTQSPSSLSASVGDRVTITCRASEGISEYLAWYQQKPGKAPKLLIYDASNLETGVPSRFSGSGSGTDFTFTISSLQPEDIATYYCQQYDNLPLTFGGGTKVEIKR
notes: as for B2
In experiment [1], B6 showed a Kd of 0.288 nM, a Response value of 2.64, a koff of 0.000141 s⁻¹ and a kon of 491000 M⁻¹ s⁻¹. Also, in experiment [2], the Kd was found to be 0.412 nM, the Response value worked out at 2.81, the koff is 0.000221 s⁻¹ and the kon was found to be 537000 M⁻¹ s⁻¹.

B7: Ab2004.Am38 (IgG1 antibody) (antibody, V domains shown)
VH: QVQLVQSGAEVKKPGASVKVSCKASGYTFTSYGISWVRQAPGQGLEWMGWISPYTGKTNYAQKLQGRVTMTRDTSTSTAYMELRSLRSDDTAVYYCAREGRWGGSFNIWGQGTMVTVSS
VL: DIQMTQSPSSLSASVGDRVTITCRASQGISSYLAWYQQKPGKAPKLLIYDTSDLDTGVPSRFSGSGSGTDFTFTISSLQPEDIATYYCQQYDNLPLTFGGGTKVEIKR
notes: as for B2
In the case of B7, in experiment [1], the affinity, expressed as Kd, was 0.255 nM; the Response value was 2.83; the koff was found to be 0.00016 s⁻¹; the kon was found to be 626000 M⁻¹ s⁻¹. In experiment [2], this molecule gave a Kd of 0.467 nM, a Response value of 2.88, a koff of 0.000342 s⁻¹ and a kon of 733000 M⁻¹ s⁻¹.

B8: Ab2004.Am32 (IgG1 antibody) (antibody, V domains shown)
VH: QVQLVQSGAEVKKPGASVKVSCKASGYTFTQYGIAWVRQAPGQGLEWMGWISAYQGNTNYAQKLQGRVTMTRDTSTSTAYMELRSLRSDDTAVYYCAREGRWGGSFNIWGQGTMVTVSS
VL: DIQMTQSPSSLSASVGDRVTITCRAAEGIGSYLAWYQQKPGKAPKLLIYDASNLETGVPSRFSGSGSGTDFTFTISSLQPEDIATYYCQQYDNLPLTFGGGTKVEIKR
notes: as for B2
In experiment [1], B8 came in with a Kd of 0.34 nM, a Response value of 2.53, a koff of 0.000146 s⁻¹ and a kon of 430000 M⁻¹ s⁻¹. In experiment [2], the Kd worked out at 0.474 nM, the Response value is 2.76, the koff is 0.000219 s⁻¹ and the kon was determined as 461000 M⁻¹ s⁻¹.

B9: Ab2004.Am35 (IgG1 antibody) (antibody, V domains shown)
VH: QVQLVQSGAEVKKPGASVKVSCKASGYTFTQYGIAWVRQAPGQGLEWMGWISAYQGNTNYAQKLQGRVTMTRDTSTSTAYMELRSLRSDDTAVYYCAREGRWGGSFNIWGQGTMVTVSS
VL: DIQMTQSPSSLSASVGDRVTITCRASQGISSYLAWYQQKPGKAPKLLIYDVSILDAGVPSRFSGSGSGTDFTFTISSLQPEDIATYYCQQYDNLPLTFGGGTKVEIKR
notes: as for B2
In experiment [1], B9 came in with a Kd of 0.281 nM, a Response value of 1.96, a koff of 0.000119 s⁻¹ and a kon of 423000 M⁻¹ s⁻¹. In addition, in experiment [2], the Kd was found to be 0.452 nM, the Response value was determined as 2.74, the koff is 0.000206 s⁻¹ and the kon turned out to be 456000 M⁻¹ s⁻¹.

B10: Ab2004.Am34 (IgG1 antibody) (antibody, V domains shown)
VH: QVQLVQSGAEVKKPGASVKVSCKASGYTFTHYGIAWVRQAPGQGLEWMGWISAYQGNTNYAQKLQGRVTMTRDTSTSTAYMELRSLRSDDTAVYYCAREGRWGGSFNIWGQGTMVTVSS
VL: DIQMTQSPSSLSASVGDRVTITCRASQGISSYLAWYQQKPGKAPKLLIYDVSILDAGVPSRFSGSGSGTDFTFTISSLQPEDIATYYCQQYDNLPLTFGGGTKVEIKR
notes: as for B2
B10: in experiment [1], the Kd was determined as 0.154 nM, the Response value was found to be 2.61, the koff stood at 6.81e-05 s⁻¹ and the kon is 444000 M⁻¹ s⁻¹. In experiment [2], this molecule showed a Kd of 0.451 nM, a Response value of 2.78, a koff of 0.000222 s⁻¹ and a kon of 492000 M⁻¹ s⁻¹.

B11: Ab2004.Am33 (IgG1 antibody) (antibody, V domains shown)
VH: QVQLVQSGAEVKKPGASVKVSCKASGYTFTSYGISWVRQAPGQGLEWMGWISPYSGNTNYAQKLQGRVTMTRDTSTSTAYMELRSLRSDDTAVYYCAREGRWGGSFNIWGQGTMVTVSS
VL: DIQMTQSPSSLSASVGDRVTITCRASEGISEYLAWYQQKPGKAPKLLIYDASNLETGVPSRFSGSGSGTDFTFTISSLQPEDIATYYCQQYDNLPLTFGGGTKVEIKR
notes: as for B2
For the molecule B11, in experiment [1], the Kd was determined as 0.316 nM, the Response value was 2.63, the koff was 0.000214 s⁻¹ and the kon was 676000 M⁻¹ s⁻¹. For the same molecule, in experiment [2], binding was put at a Kd of 0.474 nM, the Response value turned out to be 2.8, the koff is 0.000365 s⁻¹ and the kon was found to be 769000 M⁻¹ s⁻¹.

One may read the Kd as the constant that tells how readily two partners part at equilibrium. A word on the koff: it is a measure of how fast the partners let go of each other. A higher koff goes with fast dissociation. As usually defined, the kon is the second-order rate constant of association. A high value points to faster complex formation.
